The supplement of paper PMC11246515
± gives the standard deviation of the averaged measurements.

Test: total protein half-life in vivo (active degradation + dilution); higher = more stable protein
[1] = E. coli NCM3722 delta-clpP delta-lon delta-hslV, growth: N-lim chemostat, doubling time 6 h
[2] = E. coli NCM3722 delta-clpP, growth: N-lim chemostat, doubling time 6 h
[3] = E. coli NCM3722 delta-hslV, growth: N-lim chemostat, doubling time 6 h
[4] = E. coli NCM3722 delta-lon, growth: N-lim chemostat, doubling time 6 h
[5] = E. coli NCM3722 delta-smpB, growth: N-lim chemostat, doubling time 6 h
[6] = wild type E. coli NCM3722, growth: N-lim chemostat, doubling time 12 h
[7] = wild type E. coli NCM3722, growth: P-lim chemostat, doubling time 6 h
[8] = wild type E. coli NCM3722, growth: C-lim chemostat, doubling time 3 h
[9] = wild type E. coli NCM3722, growth: C-lim chemostat, doubling time 6 h
[10] = wild type E. coli NCM3722, growth: C-lim chemostat, doubling time 12 h
[11] = wild type E. coli NCM3722, growth: N-lim chemostat, doubling time 6 h
[12] = wild type E. coli NCM3722, growth: P-lim chemostat, doubling time 12 h

Sequence	total protein half-life in vivo [1] [h]	total protein half-life in vivo [2] [h]	total protein half-life in vivo [3] [h]	total protein half-life in vivo [4] [h]	total protein half-life in vivo [5] [h]	total protein half-life in vivo [6] [h]	total protein half-life in vivo [7] [h]	total protein half-life in vivo [8] [h]	total protein half-life in vivo [9] [h]	total protein half-life in vivo [10] [h]	total protein half-life in vivo [11] [h]	total protein half-life in vivo [12] [h]
MLLPWLILIPFIGGFLCWQTERFGVKVPRWIALITMGLTLALSLQLWLQGGYSLTQSAGIPQWQSEFDMPWIPRFGISIHLAIDGLSLLMVVLTGLLGVLAVLCSWKEIEKYQGFFHLNLMWILGGVIGVFLAIDMFLFFFFWEMMLVPMYFLIALWGHKASDGKTRITAATKFFIYTQASGLVMLIAILALVFVHYNATGVWTFNYEELLNTPMSSGVEYLLMLGFFIAFAVKMPVVPLHGWLPDAHSQAPTAGSVDLAGILLKTAAYGLLRFSLPLFPNASAEFAPIAMWLGVIGIFYGAWMAFAQTDIKRLIAYTSVSHMGFVLIAIYTGSQLAYQGAVIQMIAHGLSAAGLFILCGQLYERIHTRDMRMMGGLWSKMKWLPALSLFFAVATLGMPGTGNFVGEFMILFGSFQVVPVITVISTFGLVFASVYSLAMLHRAYFGKAKSQIASQELPGMSLRELFMILLLVVLLVLLGFYPQPILDTSHSAIGNIQQWFVNSVTTTRP [P0AFE8]	7.36 ± 0.89	6.54 ± 0.28	5.66 ± 0.85	6.41 ± 0.17	6.818 ± 0.033	12.04 ± 0.017	6.24 ± 0.25	–	–	–	–	–
MPRANEIKKGMVLNYNGKLLLVKDIDIQSPTARGAATLYKMRFSDVRTGLKVEERFKGDDIVDTVTLTRRYVDFSYVDGNEYVFMDKEDYTPYTFTKDQIEEELLFMPEGGMPDMQVLTWDGQLLALELPQTVDLEIVETAPGIKGASASARNKPATLSTGLVIQVPEYLSPGEKIRIHIEERRYMGRAD [P0A6N8]	5.17 ± 0.42	4.37 ± 0.34	4.21 ± 0.071	5.35 ± 0.38	4.45 ± 0.71	6.944 ± 0.044	5.26 ± 0.26	3.25 ± 0.46	5.42 ± 0.098	11.1 ± 0.96	4.59 ± 0.062	9.67 ± 0.66
MSGKPAARQGDMTQYGGSIVQGSAGVRIGAPTGVACSVCPGGVTSGHPVNPLLGAKVLPGETDIALPGPLPFILSRTYSSYRTKTPAPVGSLGPGWKMPADIRLQLRDNTLILSDNGGRSLYFEHLFPGEDGYSRSESLWLVRGGVAKLDEGHRLAALWQALPEELRLSPHRYLATNSPQGPWWLLGWCERVPEADEVLPAPLPPYRVLTGLVDRFGRTQTFHREAAGEFSGEITGVTDGAGRHFRLVLTTQAQRAEEARQQAISGGTEPSAFPDTLPGYTEYGRDNGIRLSAVWLTHDPEYPENLPAAPLVRYGWTPRGELAAVYDRSNTQVRSFTYDDKYRGRMVAHRHTGRPEICYRYDSDGRVTEQLNPAGLSYTYQYEKDRITITDSLNRREVLHTQGEGGLKRVVKKEHADGSVTQSQFDAVGRLRAQTDAAGRTTEYSPDVVTGLITRITTPDGRASAFYYNHHSQLTSATGPDGLEIRREYDEWGRLIQETAPDGDITRYRYDNPHSDLPCATEDATGSRKTMTWSRYGQLLSFTDCSGYVTRYDHDRFGQVTAVHREEGLSQYRAYDSRGQLIAVKDTQGHETRYEYNAAGDLTTVIAPDGSRNGTQYDAWGKAICTTQGGLTRSMEYDAAGRVIRLTSENGSHTTFRYDVLDRLIQETGFDGRTQRYHHDLTGKLIRSEDEGLVTHWHYDEADRLTHRTVNGETAERWQYDERGWLTDISHISEGHRVTVHYGYDSKGRLASEHLTVHHPQTNELLWQHETRHAYNAQGLANRCIPDSLPAVEWLTYGSGWLSGMKLGDTPLVEYTRDRLHRETLRSFGRYELTTAYTPAGQLQSQHLNSLLSDRDYTWNDNGELIRISSPRQTRSYSYSTTGRLTGVHTTAANLDIRIPYTTDPAGNRLPDPELHPDSALSMWPDNRIARDAHYLYRYDRHGRLTEKTDLIPEGVIRTDDERTHRYHYDSQHRLVHYTRTQYAEPLVESRYLYDPLGRRVAKRVWRRERDLTGWMSLSRKPQVTWYGWDGDRLTTIQNDRTRIQTIYQPGSFTPLIRVETATGELAKTQRRSLADTLQQSGGEDGGSVVFPPVLVQMLDRLESEILADRVSEESRRWLASCGLTVAQMQSQMDPVYTPARKIHLYHCDHRGLPLALISTEGTTAWYAEYDEWGNLLNEENPHQLQQLIRLPGQQYDEESGLYYNRHRYYDPLQGRYITQDPIGLKGGWNFYQYPLNPISNIDPLGLETLKCIKPLHSMGGTGERSGPDIWGNPFYHQYLCVPDGKGDYTCGGQDQRGESKGDGLWGPGKASNDTKEAAGRCDLVETDNSCVENCLKGKFKEVRPRYSVLPDIFTPINLGLFKNCQDWSNDSLETCKMKCSGNNIGRFIRFVFTGVM	–	–	–	–	–	–	–	–	–	–	–	13.1
MKSLSYKRIYKSQEYLATLGTIEYRSLFGSYSLTVDDTVFAMVSDGELYLRACEQSAQYCVKHPPVWLTYKKCGRSVTLNYYRVDESLWRNQLKLVRLSKYSLDAALKEKSTRNTRERLKDLPNMSFHLEAILGEVGIKDVRALRILGAKMCWLRLRQQNSLVTEKILFMLEGAIIGIHEAALPVARRQELAEWADSLTPKQEFPAELE	5.96	–	–	–	–	–	3.79 ± 0.53	2.28	4.19	9.22	–	–
MKSSTTIITAYFDIGRGDWTANKGFREKLARSVDVYFSYFERLAALENEMIIFTSPDLKPRVEAIRNGKPTTVIVIDIKKKFRYIRSRIEKIQKDESFTNRLEPRQLKNPEYWSPEYVLVCNLKAYFVNKAINMGLVKTPLVAWIDFGYCHKPNVTRGLKIWDFPFDESKMHLFTIKKGLTVTSQQQVFDFMIGNHVYIIGGAIVGSQHKWKEFYKLVLESQKITLNNNIVDDDQGIFVMCYYKRPDLFNLNYLGRGKWFDLFRCFRSNTLGAKMQALRIFLSRK	6.61 ± 0.098	6.18 ± 0.28	5.99 ± 0.11	6.49 ± 0.38	5.52 ± 0.26	11.6 ± 0.62	5.85 ± 0.86	2.82 ± 0.13	5.548 ± 0.042	10.7 ± 0.57	5.82 ± 0.57	11.4 ± 0.17
MKDVVDKCSTKGCAIDIGTVIDNDNCTSKFSRFFATREEAESFMTKLKELAAATSSADEGASVAYKIKDLEGQVELDAAFTFSCQAEMIIFELSLRSLA	5.09 ± 0.21	4.2	2.6 ± 0.38	2.85 ± 0.098	2.09 ± 0.23	3.38 ± 0.55	4 ± 0.22	2.11 ± 0.4	4.95 ± 1.9	5.78 ± 0.33	2.26 ± 0.19	7.6436 ± 0.0046
MNQIDRLLTIMQRLRDPENGCPWDKEQTFATIAPYTLEETYEVLDAIAREDFDDLRGELGDLLFQVVFYAQMAQEEGRFDFNDICAAISDKLERRHPHVFADSSAENSSEVLARWEQIKTEERAQKAQHSALDDIPRSLPALMRAQKIQKRCANVGFDWTTLGPVVDKVYEEIDEVMYEARQAVVDQAKLEEEMGDLLFATVNLARHLGTKAEIALQKANEKFERRFREVERIVAARGLEMTGVDLETMEEVWQQVKRQEIDL [P0AEY3]	4.85 ± 0.48	4.1 ± 0.46	2.49 ± 0.062	3.25 ± 0.4	2.49 ± 0.12	3.29 ± 0.12	3.61 ± 0.13	2.51 ± 0.056	5.06 ± 0.058	6.42 ± 0.2	2.624 ± 0.016	6.14 ± 1.5
MRNKNIIMLLMSSLILSGCGPQPENKESQQQQPSTPTEQQVLAAQQAAIKEAEQSAAAAKALAQQEVQQYSDKQALQGRLQEAPTFARAAKAKATHIANPGTARYQQFDDNPVKQVAQNPLATFSLDVDTGSYANVRRFLNQGLLPPPDAVRVEEIVNYFPSDWDIKDKQSIPASKPIPFAMRYELAPAPWNEQRTLLKVDILAKDRKSEELPASNLVFLIDTSGSMISDERLPLIQSSLKLLVKELREQDNIAIVTYAGDSRIALPSISGSHKAEINAAIDSLDAEGSTNGGAGLELAYQQATKGFIKGGINRILLATDGDFNVGIDDPKSIESMVKKQRESGVTLSTFGVGNSNYNEAMMVRIADVGNGNYSYIDTLSEAQKVLNSEMRQMLITVAKDVKAQIEFNPAWVTEYRQIGYEKRQLRVEHFNNDNVDAGDIGAGKHITLLFELTLNGQKASIDKLRYAPDNKLAKSDKTKELAWLKIRWKYPQGKESQLVEFPLGPTINAPSEDMRFRAAVAAYGQKLRGSEYLNNTSWQQIKQWAQQAKGEDPQGYRAEFIRLIELADGVTDISQ	–	4.02 ± 0.33	–	–	2.8393 ± 0.00061	–	–	–	–	–	–	–
MTKQPPIAKADLQKTQGNRAPAAVKNSDVISFINQPSMKEQLAAALPRHMTAERMIRIATTEIRKVPALGNCDTMSFVSAIVQCSQLGLEPGSALGHAYLLPFGNKNEKSGKKNVQLIIGYRGMIDLARRSGQIASLSARVVREGDEFSFEFGLDEKLIHRPGENEDAPVTHVYAVARLKDGGTQFEVMTRKQIELVRSLSKAGNNGPWVTHWEEMAKKTAIRRLFKYLPVSIEIQRAVSMDEKEPLTIDPADSSVLTGEYSVIDNSEE	5.151 ± 0.025	–	1.34	–	–	3.39	–	2.62 ± 0.65	3.79 ± 0.043	7.28 ± 0.72	1.57	4.09 ± 0.29
MSESVQSNSAVLVHFTLKLDDGTTAESTRNNGKPALFRLGDASLSEGLEQHLLGLKVGDKTTFSLEPDAAFGVPSPDLIQYFSRREFMDAGEPEIGAIMLFTAMDGSEMPGVIREINGDSITVDFNHPLAGQTVHFDIEVLEIDPALEA [P0AEM0]	4.8	4.79	–	5.05	3.85 ± 0.14	5.91	5.49 ± 0.13	2.84	4.78 ± 0.094	9.21 ± 1.6	4.44	11.6
MSESLSWMQTGDTLALSGELDQDVLLPLWEMREEAVKGITCIDLSRVSRVDTGGLALLLHLIDLAKKQGNNVTLQGVNDKVYTLAKLYNLPADVLPR	6.59 ± 0.72	–	6.39 ± 0.34	5.57 ± 0.6	5.75 ± 0.51	10.2	5.332 ± 0.016	2.98 ± 0.28	5.387 ± 0.018	10.9 ± 4.8	4.86 ± 0.53	11.9 ± 0.66
MKKYLALALIAPLLISCSTTKKGDTYNEAWVKDTNGFDILMGQFAHNIENIWGFKEVVIAGPKDYVKYTDQYQTRSHINFDDGTITIETIAGTEPAAHLRRAIIKTLLMGDDPSSVDLYSDVDDITISKEPFLYGQVVDNTGQPIRWEGRASNFADYLLKNRLKSRSNGLRIIYSVTINMVPNHLDKRAHKYLGMVRQASRKYGVDESLILAIMQTESSFNPYAVSRSDALGLMQVVQHTAGKDVFRSQGKSGTPSRSFLFDPASNIDTGTAYLAMLNNVYLGGIDNPTSRRYAVITAYNGGAGSVLRVFSNDKIQAANIINTMTPGDVYQTLTTRHPSAESRRYLYKVNTAQKSYRRR [P0C066]	6.29 ± 0.53	–	6.24 ± 0.8	–	4.92 ± 0.2	12.6 ± 2.2	7.12	3.27 ± 0.4	5.3 ± 0.52	9.66 ± 1.5	6.34 ± 0.94	–
MRFIIRTVMLIALVWIGLLLSGYGVLIGSKENAAGLGLQCTYLTARGTSTVQYLHTKSGFLGITDCPLLRKSNIVVDNG [Q2MB16]	7.32 ± 0.77	6.25	–	–	6.03 ± 1.1	–	–	–	–	14 ± 1.4	5.45	14 ± 2.2
MTRPIQASLDLQALKQNLSIVRQAATHARVWSVVKANAYGHGIERIWSAIGATDGFALLNLEEAITLRERGWKGPILMLEGFFHAQDLEIYDQHRLTTCVHSNWQLKALQNARLKAPLDIYLKVNSGMNRLGFQPDRVLTVWQQLRAMANVGEMTLMSHFAEAEHPDGISGAMARIEQAAEGLECRRSLSNSAATLWHPEAHFDWVRPGIILYGASPSGQWRDIANTGLRPVMTLSSEIIGVQTLKAGERVGYGGRYTARDEQRIGIVAAGYADGYPRHAPTGTPVLVDGVRTMTVGTVSMDMLAVDLTPCPQAGIGTPVELWGKEIKIDDVAAAAGTVGYELMCALALRVPVVTV	4.49 ± 0.56	3.6 ± 0.35	3.14 ± 0.1	3.89 ± 0.29	3.37 ± 0.47	5.1 ± 0.33	6.81 ± 1.4	3.16 ± 0.19	6.2 ± 0.25	9.9 ± 0.72	3.6 ± 0.21	11.9 ± 1.2
